Measured values reported in US20080118487A1.
Residue numbers refer to the chain shown, from its start. Blank lines part the entries; values can stand above or below the binder they belong to. Where no end group is shown, it is not given here.

Experiments:
[1] = target: T1, recombinant bovine mature myostatin (bovine) (UniProt O18836); assay: cell-based or functional assay
T1 sequence (looked up): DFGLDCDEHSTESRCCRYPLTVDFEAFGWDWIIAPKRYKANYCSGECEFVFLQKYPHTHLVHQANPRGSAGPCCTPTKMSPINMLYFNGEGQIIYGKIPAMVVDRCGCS

[2] = target: T2, recombinant myostatin (Example 4); assay: cell-based or functional assay
T2 sequence (O14793 267-375, species assumed, looked up): T1 sequence (looked up) with E90K, G91E

- proliferation of primary human myoblasts inhibited by myostatin (molar ratio rhMSV38 to myostatin) [1]: 10
- restoration of proliferation of human primary myoblasts inhibited by myostatin (methylene blue assay) (molar ratio rhMSV38 to myostatin) [1]: 1
B1: recombinant human MSV38 (rhMSV38) (peptide, not shown: small tags and cut ends)
chain: VHFPTPPNEEWIFFNVRRIIFLEVGFQFCSILGETALS
modifications: also: 36-aa N-terminal pET100/D-TOPO tag (enterokinase site, Xpress epitope, His), letters not shown

- rescue of myostatin inhibited myoblast proliferation (C2C12, methylene blue assay) (molar ratio roMSV47 to myostatin) [1]: 1
- restoring proliferation of C2C12 myoblasts inhibited by myostatin (molar ratio roMSV47 to myostatin) [1]: 10
B2: recombinant ovine MSV47 (roMSV47) (peptide, not shown: small tags and cut ends)
chain: IIFLEVYIQFCSILGEAVFKRQSKSIHFCQNFKIIACLCNTAAFRMK
modifications: ends and bridges not checked; also: 36-aa N-terminal pET100/D-TOPO tag (enterokinase site, Xpress epitope, His), letters not shown

- rescue of myostatin inhibited myoblast proliferation (C2C12, methylene blue assay) (molar ratio roMSV65 to myostatin) [2]: 20
B3: recombinant ovine myostatin splice variant 65 (roMSV65) (peptide, not shown: small tags and cut ends)
chain: VHFYTPPYGQWIFHKERKIIFLEVYIQFCSILGEAVFKRQSKSIHFCQNFKIIACLCNTAAFRMK
